Target: lymphotoxin beta receptor on the surface of HT29 cells (human) (UniProt P36941)
Assay: cell-based or functional assay

lymphotoxin beta receptor on the surface of HT29 cells (human), sequence (P36941 31-435): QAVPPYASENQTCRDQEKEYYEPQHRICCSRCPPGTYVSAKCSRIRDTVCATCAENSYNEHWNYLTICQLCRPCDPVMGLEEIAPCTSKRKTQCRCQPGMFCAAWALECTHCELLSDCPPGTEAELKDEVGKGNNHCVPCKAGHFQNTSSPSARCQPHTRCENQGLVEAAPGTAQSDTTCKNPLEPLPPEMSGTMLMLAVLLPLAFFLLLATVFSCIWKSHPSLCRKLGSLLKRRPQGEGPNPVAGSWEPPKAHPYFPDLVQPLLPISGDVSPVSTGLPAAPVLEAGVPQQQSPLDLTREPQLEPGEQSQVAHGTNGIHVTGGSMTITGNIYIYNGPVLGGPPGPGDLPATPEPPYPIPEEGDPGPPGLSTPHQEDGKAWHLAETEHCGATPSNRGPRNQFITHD

| Substance | minimum A450 (plateau of HT29 cell growth, MTT, with interferon gamma) [A450] |
| --- | --- |
| humanized BHA10 antibody | 0.9 |
| humanized CBE11 antibody | 0.8 |

Reference: patent US20060104971A1, “Multivalent lymphotoxin beta receptor agonists and therapeutic uses thereof” (Biogen Idec MA Inc., priority 2002, published 2006)
